Data reported in paper PMC12446779, “Structural basis of transglucosylation in dextran dextrinase, a homolog of anomer-inverting GH15 glucoside hydrolases” (The Journal of Biological Chemistry, 2025).

Molecular target: Gluconobacter oxydans dextran dextrinase Δ382C (Met1–Ser902) (Gluconobacter oxydans)
Test: SEC; gel filtration of purified Δ382C (Fig. S8); conditions not told in the text shown

stoichiometry N: 2
Substance: Gluconobacter oxydans dextran dextrinase Δ382C (Met1–Ser902) (enzyme)
